Target: T1, recombinant mouse CD206 full length protein (Mus musculus, UniProt Q61830)
T1 construct: honeybee melittin signal peptide (N); host or cells: Expi293E cells
T1 sequence (Q61830 23-1387): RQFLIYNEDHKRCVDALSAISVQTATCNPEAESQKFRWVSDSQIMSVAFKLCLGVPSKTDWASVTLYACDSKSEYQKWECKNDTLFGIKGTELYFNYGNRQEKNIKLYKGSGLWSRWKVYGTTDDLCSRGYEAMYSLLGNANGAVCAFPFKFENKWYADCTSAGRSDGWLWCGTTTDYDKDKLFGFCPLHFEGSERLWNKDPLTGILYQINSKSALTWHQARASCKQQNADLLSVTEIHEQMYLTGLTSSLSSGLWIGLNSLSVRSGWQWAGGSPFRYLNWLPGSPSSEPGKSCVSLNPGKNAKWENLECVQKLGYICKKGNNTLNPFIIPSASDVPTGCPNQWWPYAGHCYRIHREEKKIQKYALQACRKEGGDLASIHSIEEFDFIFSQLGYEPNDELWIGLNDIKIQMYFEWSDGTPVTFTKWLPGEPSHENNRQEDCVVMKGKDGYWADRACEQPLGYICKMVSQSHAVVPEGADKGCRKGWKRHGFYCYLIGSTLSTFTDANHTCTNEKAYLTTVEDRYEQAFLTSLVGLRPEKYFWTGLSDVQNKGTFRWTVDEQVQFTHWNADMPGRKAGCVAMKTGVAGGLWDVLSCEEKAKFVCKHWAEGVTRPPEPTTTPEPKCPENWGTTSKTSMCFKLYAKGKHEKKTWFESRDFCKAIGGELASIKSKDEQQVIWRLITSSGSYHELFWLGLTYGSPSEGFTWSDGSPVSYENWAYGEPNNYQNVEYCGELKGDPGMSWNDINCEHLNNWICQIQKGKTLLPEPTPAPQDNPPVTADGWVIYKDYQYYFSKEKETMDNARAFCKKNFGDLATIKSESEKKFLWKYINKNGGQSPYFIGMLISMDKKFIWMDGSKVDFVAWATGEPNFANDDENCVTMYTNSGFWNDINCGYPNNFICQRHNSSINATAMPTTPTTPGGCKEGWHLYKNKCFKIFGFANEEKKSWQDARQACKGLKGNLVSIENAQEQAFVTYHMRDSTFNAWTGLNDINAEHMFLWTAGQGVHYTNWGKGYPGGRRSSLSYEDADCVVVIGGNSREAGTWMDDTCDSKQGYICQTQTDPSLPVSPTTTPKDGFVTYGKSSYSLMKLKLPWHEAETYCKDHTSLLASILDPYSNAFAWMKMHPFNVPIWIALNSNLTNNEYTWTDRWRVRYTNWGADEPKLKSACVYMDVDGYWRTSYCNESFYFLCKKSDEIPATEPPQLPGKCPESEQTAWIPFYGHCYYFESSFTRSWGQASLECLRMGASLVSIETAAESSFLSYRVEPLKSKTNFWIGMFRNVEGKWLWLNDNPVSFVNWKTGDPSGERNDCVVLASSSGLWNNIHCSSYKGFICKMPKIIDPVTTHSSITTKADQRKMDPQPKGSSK
Experiment: Negative stain electron microscopy of open vs closed CD206 conformation
Format: biochemical
Settings: negative stain EM
Method: A 3 μL aliquot containing ˜0.01 mg/mL of the sample was applied for 20 seconds onto a carbon-coated 200 Cu mesh grid that had been glow discharged at 30 mA for 30 sec, then negatively stained with 0.7% (w/v) uranyl formate for 40 sec. […] Images were acquired with an Eagle 2k×2k CCD camera (http://FEI.com) using a nominal defocus of 1500 nm and the SerialEM software (54). […] Images were acquired with a Ceta 4k×4k CCD camera (http://FEI.com) using a nominal defocus of 1200 nm and the EPU software. For electron microscopy data processing, particles were selected from the micrographs, extracted, and a reference-free 2D class averages were obtained using RELION 2.1.0. Microscale thermophoresis and cellular thermal shift assays.

| Sequence | closed vs open conformation of CD206 |
| --- | --- |
| EKLSAFRNFF [AVP1] | lower ratios of closed-to-open conformations |
| FFRKSKEKIG [LL37F1, 10mer motif from cathelicidin antimicrobial peptide [Homo sapiens]] | lower ratios of closed-to-open conformations |
